Experimental data taken from paper doi:10.1101/2023.03.27.534325, “Distinct role of TGN-resident clathrin adaptors for Rab5 activation in the TGN-endosome trafficking pathway” (bioRxiv, 2023).

What was measured:
[1] = target: T1, GFP-tagged active Vps21p mutant (Q66L) (S. cerevisiae, UniProt P36017 1-210, Q66L); experiment: pull-down; extract of yeast cells expressing GFP-tagged Vps21p mutant incubated with GST-GNB-bound Glutathione sepharose-4B; washed; incubated with Nluc-RbNT at 200 nM; bound fractions blotted with anti-6×His or anti-GFP antibody; conditions: both partners purified
T1 construct: Vps21p (yeast Rab5), Saccharomyces cerevisiae, constitutively active mutant; also called Vps21Q66L; constitutively active Q66L mutant of Vps21p
T1 sequence (looked up): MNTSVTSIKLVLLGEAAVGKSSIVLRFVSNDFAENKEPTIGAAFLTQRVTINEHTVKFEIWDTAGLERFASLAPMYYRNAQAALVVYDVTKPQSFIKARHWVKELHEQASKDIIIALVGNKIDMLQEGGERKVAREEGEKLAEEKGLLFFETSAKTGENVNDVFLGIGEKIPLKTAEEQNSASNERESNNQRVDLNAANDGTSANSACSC

[2] = target: T2, GFP-ALFA-Vps21p (S. cerevisiae, UniProt P36017 1-210); experiment: pull-down; GFP-ALFA-Vps21p from 600 μg cleared lysate of wild-type yeast held on GST-ANB Glutathione sepharose-4B; washed (20 mM Tris-HCl pH 8.0, 500 mM NaCl, 10 mM MgCl2, 0.1% NP-40); 10 pmole 6×His-RbNT-Nluc added, 1 hr in the cold room; eluted with ALFA peptide; Nluc activity read. Also run on ent3Δ ent5Δ, ent3Δ ent5Δ apl4Δ, pik1-1, pik1-1 ent3Δ, pik1-1 ypt31ts and pik1-1 ypt31ts gga1Δ gga2Δ cells.; conditions: both partners purified
T2 construct: Vps21p (yeast Rab5), Saccharomyces cerevisiae; The ALFA peptide lies between GFP and Vps21p, by the printed name; also called Rab5; yeast Rab5 (Vps21p); not shown: GFP, N-terminal, kept; ALFA peptide, N-terminal, kept
T2 sequence (looked up): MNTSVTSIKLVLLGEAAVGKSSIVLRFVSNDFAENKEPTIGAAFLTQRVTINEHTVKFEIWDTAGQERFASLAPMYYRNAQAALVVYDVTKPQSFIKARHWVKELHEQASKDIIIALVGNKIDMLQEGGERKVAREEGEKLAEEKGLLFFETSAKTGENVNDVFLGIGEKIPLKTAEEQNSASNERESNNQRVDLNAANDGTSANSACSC

binding result [1]: binds | binding result [2]: binds
B1: 6×His-Nano luciferase (Nluc)-Rabenosyn5 N-terminal fragment (domain or fragment, human, UniProt Q9H1K0 1-40, looked up)
chain: MASLDDPGEVREGFLCPLCLKDLQSFYQLHSHYEEEHSGE
notes: Rabenosyn-5, human, N-terminal fragment (1-40 a.a.), RbNT; The legends name it 6×His-Nluc-RbNT and the methods 6×His-RbNT-Nluc; The cloning sites (Nluc at XhoI/EcoRI, RbNT at EcoRI/HindIII of pColdI) fit His-Nluc-RbNT; also called Nluc-RbNT; 6×His-RbNT-Nluc; source: E. coli KRX, purified (Ni-NTA agarose); not shown: His6, N-terminal, kept; Nano luciferase, N-terminal, kept
